Data published in article PMC7572793.
pKd: −log10 of the molar value.

What was measured:
[1] = molecular target: rPfCSP_∆ABCD (Plasmodium falciparum) (UniProt Q7K740); test: ITC
[2] = molecular target: recombinant full-length PfCSP (rPfCSP_FL) (Plasmodium falciparum) (UniProt Q7K740); test: ITC

How did the pKd [1] turn out when L9 (antibody) was run?
Its pKd is 7.14.

And the stoichiometry N (antigen binding sites per rPfCSP) [1]?
The stoichiometry N (antigen binding sites per rPfCSP) was 12.7.

And the KD1 (binding event 1) [2]?
The KD1 (binding event 1) was 22 nM.

And the KD2 (binding event 2) [2]?
Its KD2 (binding event 2) is 47 nM.

And the N of binding event 1 (binding sites) [2]?
Its N of binding event 1 (binding sites) is 2.

And the N of binding event 2 (binding sites) [2]?
The N of binding event 2 (binding sites) was 9.

What about the stoichiometry N (antigen binding sites per rPfCSP) [2] of the same substance?
The stoichiometry N (antigen binding sites per rPfCSP) was 11.2.
